From paper PMC1636418

Tests used:
Assay in all cases: EMSA
ZαβZBP1 = target: T1, ZαβZBP1 (Homo sapiens, UniProt Q9H171 4-167)
T1 sequence: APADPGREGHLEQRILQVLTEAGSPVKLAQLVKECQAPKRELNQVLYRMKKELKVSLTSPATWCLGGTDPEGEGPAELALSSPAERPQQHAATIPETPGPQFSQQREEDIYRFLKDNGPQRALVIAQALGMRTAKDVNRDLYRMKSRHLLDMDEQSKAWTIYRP

ZαβADAR1 = target: T2, ZαβADAR1 (Homo sapiens, UniProt P55265 133-368)
T2 sequence: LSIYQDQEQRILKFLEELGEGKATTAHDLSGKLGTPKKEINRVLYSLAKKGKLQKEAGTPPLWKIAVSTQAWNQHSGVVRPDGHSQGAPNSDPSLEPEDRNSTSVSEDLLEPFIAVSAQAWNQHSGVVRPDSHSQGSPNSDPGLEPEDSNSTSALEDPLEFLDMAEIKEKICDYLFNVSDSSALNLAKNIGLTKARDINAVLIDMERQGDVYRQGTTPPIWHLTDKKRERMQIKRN

ZβZBP1 = target: T3, ZβZBP1 (Homo sapiens, UniProt Q9H171 4-10+87-167, internal_change)
T3 sequence: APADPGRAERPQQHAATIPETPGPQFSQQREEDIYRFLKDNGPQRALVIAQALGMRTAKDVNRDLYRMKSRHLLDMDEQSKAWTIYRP

ZαZBP1 = target: T4, ZαZBP1 (Homo sapiens, UniProt Q9H171 4-86)
T4 sequence: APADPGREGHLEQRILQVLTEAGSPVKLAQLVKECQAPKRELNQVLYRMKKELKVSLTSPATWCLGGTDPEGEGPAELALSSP

ZαβZBP1 N46D/Y50A = target: T5, ZαβZBP1 N46D/Y50A (Homo sapiens, UniProt Q9H171 4-167, N46D;Y50A)
T5 sequence: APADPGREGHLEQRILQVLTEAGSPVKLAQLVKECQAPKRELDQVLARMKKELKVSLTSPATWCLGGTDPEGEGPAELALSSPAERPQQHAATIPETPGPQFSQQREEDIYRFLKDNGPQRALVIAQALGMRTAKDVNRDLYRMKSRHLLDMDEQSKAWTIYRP

[1] = target: T6, ZαβZBP1 N46D/Y50A/N141D/Y145A (Homo sapiens, UniProt Q9H171 4-167, N46D;Y50A;N141D;Y145A)
T6 sequence: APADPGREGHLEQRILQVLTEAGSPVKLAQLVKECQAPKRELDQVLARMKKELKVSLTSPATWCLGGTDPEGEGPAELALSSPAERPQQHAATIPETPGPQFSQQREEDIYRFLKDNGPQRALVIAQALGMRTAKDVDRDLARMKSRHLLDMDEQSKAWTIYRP

ZαβZBP1 Y50A = target: T7, ZαβZBP1 Y50A (Homo sapiens, UniProt Q9H171 4-167, Y50A)
T7 sequence: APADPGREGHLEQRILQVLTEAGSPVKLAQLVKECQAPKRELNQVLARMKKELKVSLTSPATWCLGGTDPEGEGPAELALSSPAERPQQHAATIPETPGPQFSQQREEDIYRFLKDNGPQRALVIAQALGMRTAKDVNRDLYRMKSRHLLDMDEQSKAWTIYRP

ZαβZBP1 N46D = target: T8, ZαβZBP1 N46D (Homo sapiens, UniProt Q9H171 4-167, N46D)
T8 sequence: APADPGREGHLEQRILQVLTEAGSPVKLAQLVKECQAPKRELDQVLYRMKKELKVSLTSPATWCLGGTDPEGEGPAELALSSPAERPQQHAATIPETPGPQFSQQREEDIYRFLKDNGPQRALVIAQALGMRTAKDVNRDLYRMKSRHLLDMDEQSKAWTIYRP

ZαβZBP1 N141D/Y145A = target: T9, ZαβZBP1 N141D/Y145A (Homo sapiens, UniProt Q9H171 4-167, N141D;Y145A)
T9 sequence: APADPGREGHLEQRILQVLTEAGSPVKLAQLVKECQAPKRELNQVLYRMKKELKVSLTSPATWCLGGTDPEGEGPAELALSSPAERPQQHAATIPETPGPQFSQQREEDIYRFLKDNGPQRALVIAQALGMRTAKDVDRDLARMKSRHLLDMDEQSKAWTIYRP

B1: (dC-dG)20 (dsDNA)
DNA 1: CGCGCGCGCGCGCGCGCGCGCGCGCGCGCGCGCGCGCGCG
DNA 2: CGCGCGCGCGCGCGCGCGCGCGCGCGCGCGCGCGCGCGCG
ZαβZBP1
  binding result: binds
ZαβADAR1
  binding result: binds
ZβZBP1
  binding result: binds
ZαZBP1
  binding result: binds
ZαβZBP1 N46D/Y50A
  binding result: no binding
[1]
  binding result: no binding
ZαβZBP1 Y50A
  binding result: no binding
ZαβZBP1 N46D
  binding result: no binding
ZαβZBP1 N141D/Y145A
  binding result: no binding
